In article PMC7921949 one finds Kd data, which are given here for two sequences.

The data set deals with PD-L1 on CT26 murine colon cancer cells (mouse (CT26)) (UniProt Q9EP73). As to the kind of experiment: flow cytometry on CT26 cells. The following applies: apparent Kd on whole cells, PBS, room temperature, 30 min, 2x10^5 CT26 cells in 250 uL, three PBS washes, Y = Bmax X/(Kd + X), n = 2.
PD-L1 on CT26 murine colon cancer cells (mouse (CT26)), sequence (Q9EP73 19-290): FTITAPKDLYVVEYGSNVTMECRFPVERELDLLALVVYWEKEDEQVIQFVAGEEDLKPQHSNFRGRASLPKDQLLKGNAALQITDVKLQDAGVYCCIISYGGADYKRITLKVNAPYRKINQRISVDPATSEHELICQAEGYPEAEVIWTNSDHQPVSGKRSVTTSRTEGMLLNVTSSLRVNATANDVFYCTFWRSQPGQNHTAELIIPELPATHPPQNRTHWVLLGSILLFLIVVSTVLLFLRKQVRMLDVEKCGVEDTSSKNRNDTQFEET

“ACGGGCCACATCAACTCATTGATAGACAATGCGTCCACTGCCCGT [free PD-L1 aptamer (Apt)]”: the Kd amounted to 283 nM.
As to “CGGCGATCCGGCCATAGTGGATTGCGGGCCAGTGAAAAAAACGGGCCACATCAACTCATTGATAGACAATGCGTCCACTGCCCGT / CTCACTGGCCCGCAATCCTGAGCACGTGGCTGACGAAAAAACGGGCCACATCAACTCATTGATAGACAATGCGTCCACTGCCCGT / CCGTCAGCCACGTGCTCACCGAATGCTGCGCAACCAAAAAACGGGCCACATCAACTCATTGATAGACAATGCGTCCACTGCCCGT / CGGTTGCGCAGCATTCGGACTATGGCCGGATCGCCAAAAAACGGGCCACATCAACTCATTGATAGACAATGCGTCCACTGCCCGT [Apt-HJ (tetravalent aptamer Holliday junction)]”, the Kd (tetravalent, first nt at 5' end of each strand phosphorothioate in some Apt-HJ, unclear for binding assay) was found to be 145 nM.
